Numbering of substitutions follows the chain as printed.

First the molecules themselves.
B1: Chimeric Antibody 28D4-MMAF (antibody, V domains shown)
VH: DVQLVESGGGLVRPGGSLKLSCAASGFTFSNYVMSWARQSPEKRLEWVAEISTGGSHTYYSDTVTGRFTISRDNAKKALYLEMSSLRSEDTAIYYCIMFYYGSSYSMDYWGQGTSVTVSS
VL: DIQMTQSTSSLSASLGDRITISCRASQDIRNYLNWYQQKPDGTVKLLIYHTSRLHSGVPSRFSGSGSGTDYSLTISNLEQEDIATYFCQQGDTLPLTFGAGTRLELK
modifications: MC-MMAF on cysteines reduced with TCEP (sites not given), DAR 3.0-5.0 per antibody
B2: Humanized Antibody 28D4-3-MMAF (antibody, V domains shown)
VH: EVQLVESGGGLVKPGGSLRLSCAASGFTFSNYVMSWIRQAPGKGLEWVAEISTGGSHTYYSDTVTGRFTISRDNAKKSLYLQMNSLRAEDTAVYYCIMFYYGSSYSMDYWGQGTTVTVSS
VL: DIQMTQSPSSLSASVGDRVTITCRASQDIRNYLNWYQQKPGKAPKLLIYHTSRLHSGVPSRFSGSGSGTDFTFTISSLQPEDIATYYCQQGDTLPLTFGQGTRLEIK
modifications: MC-MMAF on cysteines reduced with TCEP (sites not given), DAR 3.0-5.0 per antibody
B3: Humanized Antibody 28D4-7-MMAF (antibody, V domains shown)
VH: B2 VH
VL: B2 VL with F71Y
modifications: MC-MMAF on cysteines reduced with TCEP (sites not given), DAR 3.0-5.0 per antibody
B4: Humanized Antibody 28D4-4-MMAF (antibody, V domains shown)
VH: B2 VH with I37A, G44R
VL: B2 VL
modifications: MC-MMAF on cysteines reduced with TCEP (sites not given), DAR 3.0-5.0 per antibody
B5: Humanized Antibody 12B12-12-MMAE (antibody, V domains shown)
VH: EVQLVESGGGLVQPGGSLRLSCAASGFTFSNFGMHWVRQAPGKGLEWVSYISSGSTSFYYADTVKGRFTISRDNAKNSLYLQMNSLRDEDTAVYYCARTNSLLRGFFDAWGQGTTVTVSS
VL: DIVLTQTPLSLSVTPGQPASISCRASQSVSSSSYTYLHWYLQKPGQPPQLLIKSASNLESGVPDRFSGSGSGTDFTLKISRVEAEDVGVYYCQHSWEIPLTFGQGTKLEIK
modifications: MC-VC-PAB-MMAE on cysteines reduced with TCEP (sites not given), DAR about 3.0-5.0 per antibody
B6: Humanized Antibody 12B12-12-DM1 (antibody, V domains shown)
VH: B5 VH
VL: B5 VL
modifications: SMCC-DM1 (sites not given), DAR about 3.0-5.0 per antibody
B7: Humanized antibody 12B12-4 (antibody, V domains shown)
VH: B5 VH
VL: DIVLTQSPDSLAVSLGERATINCRASQSVSSSSYTYLHWYQQKPGQPPKLLIKSASNLESGVPDRFSGSGSGTDFTLTISSLQAEDVAVYYCQHSWEIPLTFGQGTKLEIK
notes: also called h12B12-4
B8: Humanized antibody 12B12-16 (antibody, V domains shown)
VH: B5 VH with L11V, G16R, S49A, A75S, S78T, D88A, A97S
VL: B5 VL
notes: also called h12B12-16
B9: Humanized antibody 12B12-5 (antibody, V domains shown)
VH: B5 VH with A97S
VL: B7 VL
notes: also called h12B12-5
B10: Humanized antibody 28D4-8 (antibody, V domains shown)
VH: B2 VH with I37A, G44R
VL: B2 VL with F71Y
notes: also called h28D4-8
B11: Humanized antibody 28D4-11 (antibody, V domains shown)
VH: B2 VH
VL: B2 VL with A43T, P44V, F71Y, Y87F
notes: also called h28D4-11
B12: Humanized antibody 28D4-9 (antibody, V domains shown)
VH: B2 VH with A49S, K77N, I97A, M98R
VL: B2 VL with A43T, P44V, F71Y, Y87F
notes: also called h28D4-9
B13: Humanized antibody 28D4-10 (antibody, V domains shown)
VH: B2 VH with A49S, K77N
VL: B2 VL with A43T, P44V, F71Y, Y87F
notes: also called h28D4-10
B14: Humanized antibody 28D4-12 (antibody, V domains shown)
VH: B2 VH with I37A, G44R
VL: B2 VL with A43T, P44V, F71Y, Y87F
notes: also called h28D4-12

For one experiment, the target named is T1, human TPBG protein, full-length, on the cell surface (human, UniProt Q13641 32-420).
T1 sequence (looked up): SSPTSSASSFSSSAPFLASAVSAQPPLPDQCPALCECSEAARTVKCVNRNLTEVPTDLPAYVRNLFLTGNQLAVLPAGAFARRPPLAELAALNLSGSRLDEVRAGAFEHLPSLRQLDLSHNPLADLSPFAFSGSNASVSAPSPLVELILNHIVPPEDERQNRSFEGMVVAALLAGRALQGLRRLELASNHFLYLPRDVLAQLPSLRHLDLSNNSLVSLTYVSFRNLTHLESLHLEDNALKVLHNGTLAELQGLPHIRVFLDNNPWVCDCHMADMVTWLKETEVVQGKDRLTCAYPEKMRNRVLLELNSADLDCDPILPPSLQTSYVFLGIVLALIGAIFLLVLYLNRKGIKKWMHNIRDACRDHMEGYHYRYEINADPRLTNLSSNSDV
As to the kind of experiment: cell-based or functional assay.
For the molecule B1, the “IC50 of cell killing, NCI-H1568 cells (CellTiter-Glo, 5 days)” value is 0.091 nM.
Same read-out and setting: in the case of B2 it was 0.061 nM; in that of B3, 0.066 nM.
The same measure, in the same setting: then B4, with 0.074 nM.

The target of the next experiment is T1, human TPBG protein, full-length, on the …. As to the kind of experiment: cell-based or functional assay. This is another data set of the same source.
For B5, the “IC50 of cell killing, MDA-MB-468 cells (CellTiter-Glo, 5 days)” value amounted to 0.27 nM; the “IC50 of cell killing, NCI-H1568 cells (CellTiter-Glo, 5 days)” value amounted to 0.43 nM; the “IC50 of cell killing, NCI-H1975 cells (CellTiter-Glo, 5 days)” value is 1.2 nM.
On the same counts, the results for B6 are 0.44 nM, 0.38 nM and 5.93 nM.

Another experiment concerns the target T2, human TPBG-hFc protein (human, UniProt Q13641 32-355).
T2 construct: range 32-355; Expressed in HEK293 cells, purified on protein A; also called immunogen A; hFc tagged TPBG protein; not shown: human IgG Fc fragment of the pCpC vector
T2 sequence (looked up): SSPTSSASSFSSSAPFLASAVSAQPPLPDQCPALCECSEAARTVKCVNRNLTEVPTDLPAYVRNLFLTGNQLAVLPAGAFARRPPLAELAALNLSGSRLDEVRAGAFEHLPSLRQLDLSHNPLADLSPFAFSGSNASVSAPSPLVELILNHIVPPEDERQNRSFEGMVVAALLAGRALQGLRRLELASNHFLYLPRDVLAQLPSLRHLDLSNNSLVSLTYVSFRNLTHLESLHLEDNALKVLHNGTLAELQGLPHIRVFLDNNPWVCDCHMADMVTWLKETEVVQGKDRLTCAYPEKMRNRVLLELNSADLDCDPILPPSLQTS
As to the kind of experiment: ELISA, coated human TPBG-hFc. The procedure:
The purified human TPBG-hFc obtained from step (1) diluting with PBS to a final concentration of 1.0 μg/mL was aliquoted into a 96-well ELISA plate at 100 μL per well, and sealed with a parafilm and incubated at 4° C. overnight. The plate was washed twice with plate washing buffer (PBS containing 0.01% (v/v) Tween 20), and blocked with blocking buffer (PBS containing 0.01% (v/v) Tween 20 and 1% (w/w) BSA) at room temperature for 2 h. The blocking buffer was discarded, and […] per well of the purified antibody TPBG was added. After incubating at 37° C. for 2 h, the plate was washed for three times with plate washing buffer (PBS containing 0.01% (v/v) Tween 20). HRP (horseradish peroxidase)-labeled secondary antibody (purchased from Sigma) was added and incubated at 37° C. for 2 h, and the plate was washed for three times using plate washing buffer (PBS containing 0.01% (v/v) Tween 20). 100 μL of TMB substrate was aliquoted into each well, incubated at room temperature for 30 min, and 100 μL of stop buffer (1.0 N HCl) per well was subsequently added. A_{450 nm} values were read using the ELISA plate reader (SpectraMax 384plus purchased from Molecular Device), and the results were shown in Table 5. […] In Table 5 the IgG control herein is a mice IgG control, the data in the Table are OD_{450 nm} values, and Blank represents the OD_{450 nm} value of PBS buffer in the plate.
The purified humanized TPBG antibody obtained from Embodiment 1 was reacted with human TPBG-hFc, for the method, see (5) Identification of lead antibody in Embodiment 1. The EC50 in Table 11 and Table 12 are calculated according to the OD450 nm value of the h12B12 variants and the h28D4 variants, respectively. […] FIGS. 7A and 7B are the binding reactions of purified humanized h12B12 variants to human TBPG-hFc protein, and FIGS. 8A and 8B are the binding reactions of the purified humanized h28D4 variants to human TBPG-hFc protein.
(In an ELISA, binding on a coated surface is turned into a signal by an enzyme label.)
Consider B7, for which the midpoint of the response, the EC50, lay at 0.227 nM.
Take B8: a half-maximal effect (EC50) was put at 0.2 nM.
Take B9: the EC50 – broadly, the concentration giving half of the maximal effect – was 0.253 nM.
B10 showed an EC50 of 0.162 nM.
Still for that read-out and setting: in the case of B11 it was 0.191 nM.
Same read-out and setting: then B12, with 0.218 nM; and B13, with 0.224 nM.
As to B14, a half-maximal response (EC50) required 0.167 nM.

The next experiment concerns the target T3, human TPBG antigen immobilized on a CM5 chip (human, UniProt Q13641 32-355, limits assumed).
T3 sequence (looked up): T2 sequence (looked up)
The experiment is described as follows: SPR (Biacore), human TPBG antigen immobilized on CM5 chip. The procedure: To assess the binding specificity and affinity of the humanized anti-TPBG antibody, Biacore analysis was performed using human TPBG antigen immobilized on a CM5 chip. Biacore technique utilizes the change in the refractive index of surface layer after antibody binding to the TPBG antigen immobilized on the surface layer. The binding was determined by surface plasmon resonance (SPR) through detecting the laser refracted from the surface. Non-specific and specific interactions were distinguished by analysis of signal kinetics binding rate and dissociation rate. Chimeric antibodies 12B12 and 28D4 were used as controls.
In general terms: SPR reads the build-up and loss of mass on a sensor chip optically.
Turning to B7, the Kd – broadly, the equilibrium constant for the complex coming apart – is 0.022 nM; the dissociation rate constant (koff) – broadly, a measure of how fast the partners let go of each other – is 3.46e-05 s⁻¹; the kon – broadly, a measure of how fast the partners come together – amounted to 1.58e+06 M⁻¹ s⁻¹.
On the same counts, the results for B8 are 0.0229 nM, 3.65e-05 s⁻¹ and 1.59e+06 M⁻¹ s⁻¹.
The matching figures for B9: 0.0179 nM, 2.1e-05 s⁻¹ and 1.17e+06 M⁻¹ s⁻¹.
In turn, B10 displayed a Kd of 0.0296 nM, a koff of 3.01e-05 s⁻¹ and an association rate constant (kon) of 1.02e+06 M⁻¹ s⁻¹.
The matching figures for B14: 0.0381 nM, 3.94e-05 s⁻¹ and 1.03e+06 M⁻¹ s⁻¹.

For the origin of these results see US20200062856A1 (XDCEXPLORER SHANGHAI, published 2020).
